This is an account of results in publication PMC4818849, “In vitroassembly of the bacterial actin protein MamK from ‘CandidatusMagnetobacterium casensis’ in the phylumNitrospirae” (Protein & Cell, 2016).

Substrate in the data set: Nc1ncnc2c1ncn2[C@@H]1O[C@H](COP(=O)(O)OP(=O)(O)OP(=O)(O)O)[C@@H](O)[C@H]1O
Nature of the data set: ATPase, malachite green phosphate release, Lineweaver-Burk plot. The class given is biochemical, Magnetobacterium casense (SeqCode). The settings on record: assay buffer of b46: 20 mmol/L Tris-HCl pH 8.0, 0.2 mmol/L MgCl2, 50 mmol/L NaCl, 37°C, kinetic details in supplement. From the text: ATPase, malachite green phosphate release, Lineweaver-Burk plot on MamK from 'Candidatus Magnetobacterium casensis' (Mcas MamK) | we calculated the Vmax and Km of the ATPase activity as […]

B1: MamK from 'Candidatus Magnetobacterium casensis' (Mcas MamK) (Magnetobacterium casense (SeqCode)) (protein)
chain: MTKTKILNIGIDLGTSRSVIACDNGVRTFVPSYVGFPKDAVSRKMFGRDVIFGDEAIKHRMALNLFRPFDKGMIKYADTNPESKEYKNALYVAKALLQHLVDLAKEGDQERGVDYIVRGVIGAPALASRKNRKALLDVARGILDGVMISSEPFTVAYGLNLLSNALIIDIGAGTVDLCRMHGTIPTDEDQITTFKAGDYVDQAFYDLITKKYKDVNLTINMVKKFKEENAFISSQGERVFIEVPVKGKPEKRDITDELRQACRMIVPDIVEGIRKLIAEYDPEFQNNLKQNVVLAGGGSQIIGLRKEIEDYMIETLGYGKVIKIEEPLFAGANGAMMLCKDMPDEYWDEVSKR
notes: full-length mamK from Mcas genomic DNA in pET28a and pET22b, E. coli C43 (DE3); His tag removed leaving three N-terminal residues (tagged forms also examined); filament-forming
By Km is commonly meant the substrate concentration at which the rate is half of its maximum. The kcat is the maximal rate divided by the concentration of active sites. As to B1, the Km was determined as 71.02 µM and the kcat was 0.0633 s⁻¹.
